Laboratory results: EP2168984B1 (Abbott GmbH & Co. KG, dated 2012)

Legend:
Assay in all cases: competition ELISA: soluble cytokine against J695 (100 ng/ml) binding to immobilized human IL-12
human TNFα = human TNFα (human, UniProt P01375 77-233)
human IGF-II = human IGF-II (human, UniProt P01344 25-91)
human IL-11 = molecular target: T1, human IL-11 (human, UniProt P20809 22-199)
T1 sequence (looked up): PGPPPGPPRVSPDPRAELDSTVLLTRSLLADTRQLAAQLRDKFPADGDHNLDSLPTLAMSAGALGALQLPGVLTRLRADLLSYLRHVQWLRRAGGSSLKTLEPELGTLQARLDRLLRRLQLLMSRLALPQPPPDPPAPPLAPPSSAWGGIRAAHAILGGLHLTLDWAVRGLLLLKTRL

human LIF = human LIF (human, UniProt P15018 23-202)
human TGF-β1 = human TGF-β1 (human, UniProt P01137 279-390)
human IGF-I = human IGF-I (human, UniProt P05019 49-118)
human M-CSF = molecular target: T2, human M-CSF (human, UniProt P09603 33-190, limits assumed)
T2 sequence (looked up): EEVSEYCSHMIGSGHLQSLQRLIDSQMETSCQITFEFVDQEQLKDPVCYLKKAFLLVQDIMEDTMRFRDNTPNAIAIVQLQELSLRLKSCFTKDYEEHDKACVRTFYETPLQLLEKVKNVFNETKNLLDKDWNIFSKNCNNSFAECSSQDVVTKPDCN

human IL-10 = human IL-10 (human, UniProt P22301 19-178)
human IL-6 = human IL-6 (human, UniProt P05231 30-212)
human IL-1α = molecular target: T3, human IL-1α (human, UniProt P01583 113-271)
T3 sequence (looked up): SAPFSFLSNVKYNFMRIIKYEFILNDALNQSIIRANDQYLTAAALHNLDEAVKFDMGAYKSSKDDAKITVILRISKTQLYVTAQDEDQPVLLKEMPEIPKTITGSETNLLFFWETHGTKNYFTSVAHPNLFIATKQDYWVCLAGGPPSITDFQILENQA

human IL-1β = human IL-1β (human, UniProt P01584 117-269)
human IL-8 = human IL-8 (human, UniProt P10145 28-99, limits assumed)
human IL-17 = human IL-17 (human, UniProt Q16552 20-155, limits assumed)
[1] = molecular target: T4, human soluble IL-6 receptor (human, UniProt P08887 20-358)
T4 construct: Soluble form
T4 sequence (looked up): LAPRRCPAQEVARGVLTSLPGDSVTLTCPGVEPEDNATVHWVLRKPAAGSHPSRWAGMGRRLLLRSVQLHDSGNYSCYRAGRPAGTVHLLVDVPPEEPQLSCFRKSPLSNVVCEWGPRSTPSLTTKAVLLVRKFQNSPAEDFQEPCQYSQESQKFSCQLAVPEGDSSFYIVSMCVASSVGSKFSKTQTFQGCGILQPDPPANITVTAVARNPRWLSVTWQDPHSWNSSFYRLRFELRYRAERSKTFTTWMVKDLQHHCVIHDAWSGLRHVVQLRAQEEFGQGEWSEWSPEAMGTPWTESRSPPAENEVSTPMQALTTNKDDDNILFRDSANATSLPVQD

human lymphotoxin = molecular target: T5, human lymphotoxin (human, UniProt P01374 35-205, limits assumed)
T5 sequence (looked up): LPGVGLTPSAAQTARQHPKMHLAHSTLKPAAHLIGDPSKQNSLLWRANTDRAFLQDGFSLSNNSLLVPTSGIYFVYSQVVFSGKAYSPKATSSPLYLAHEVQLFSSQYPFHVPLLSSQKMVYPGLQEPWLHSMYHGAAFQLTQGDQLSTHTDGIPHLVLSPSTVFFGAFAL

human IL-4 = molecular target: T6, human IL-4 (human, UniProt P05112 25-153)
T6 sequence (looked up): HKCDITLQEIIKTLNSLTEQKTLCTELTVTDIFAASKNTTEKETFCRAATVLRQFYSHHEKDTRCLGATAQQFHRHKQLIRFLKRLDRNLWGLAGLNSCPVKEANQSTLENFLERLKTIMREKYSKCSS

human IFN-gamma = molecular target: T7, human IFN-gamma (human, UniProt P01579 24-166, limits assumed)
T7 sequence (looked up): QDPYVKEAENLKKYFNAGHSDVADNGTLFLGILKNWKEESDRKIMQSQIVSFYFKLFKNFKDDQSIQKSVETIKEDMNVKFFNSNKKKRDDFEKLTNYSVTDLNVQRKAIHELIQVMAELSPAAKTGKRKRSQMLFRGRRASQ

human IL-2 = human IL-2 (human, UniProt P60568 21-153)

Measured: binding result

B1: J695 (human anti-human IL-12 antibody, IgG1) (antibody, V domains shown)
VH: QVQLVESGGGVVQPGRSLRLSCAASGFTFSSYGMHWVRQAPGKGLEWVAFIRYDGSNKYYADSVKGRFTISRDNSKNTLYLQMNSLRAEDTAVYYCKTHGSHDNWGQGTMVTVSS
VL: QSVLTQPPSVSGAPGQRVTISCSGSRSNIGSNTVKWYQQLPGTAPKLLIYYNDQRPSGVPDRFSGSKSGTSASLAITGLQAEDEADYYCQSYDRYTHPALLFGTGTKVTVLG
notes: Tested as whole IgG1 with lambda light chain (detected with anti-human lambda); also called IgG1 J695; Y61-L94Y-L50Y IgG
no binding (tested: 2nM): human TNFα | human IGF-II | human IL-11 | human LIF | human TGF-β1 | human IGF-I | human M-CSF | human IL-10 | human IL-6 | human IL-1α | human IL-1β | human IL-8 | human IL-17 | [1] | human lymphotoxin | human IL-4 | human IFN-gamma | human IL-2
